Source: patent US20130315910A1 (Xencor, published 2013)

T1: human FcγRIIb receptor protein (R&D Systems) (human, UniProt P31994 46-217)
T1 construct: Bought protein injected over captured antibody in Biacore; also called CD32b
T1 sequence (looked up): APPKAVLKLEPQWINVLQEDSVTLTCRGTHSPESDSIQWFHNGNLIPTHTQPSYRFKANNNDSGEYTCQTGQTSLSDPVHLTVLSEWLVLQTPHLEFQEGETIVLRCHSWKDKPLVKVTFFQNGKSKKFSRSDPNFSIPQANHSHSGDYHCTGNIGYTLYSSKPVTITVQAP

T2: human FcγRIIa (131R), His- and GST-tagged (human, UniProt P12318 34-217)
T2 construct: Expressed in HEK293T cells, purified by nickel chromatography; also called R131 FcγRIIa; not shown: 6xHis and GST tags of the pTT5 vector
T2 sequence (looked up): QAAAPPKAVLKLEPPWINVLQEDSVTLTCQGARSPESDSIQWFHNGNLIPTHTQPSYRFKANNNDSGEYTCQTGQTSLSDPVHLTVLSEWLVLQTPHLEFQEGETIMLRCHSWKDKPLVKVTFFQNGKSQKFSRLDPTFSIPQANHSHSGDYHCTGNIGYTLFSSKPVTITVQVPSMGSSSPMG

T3: human FcγRIIa (131H), His- and GST-tagged (human, UniProt P12318 34-217)
T3 construct: also called H131 FcγRIIa; HIIa; not shown: 6xHis and GST tags of the pTT5 vector
T3 sequence (looked up): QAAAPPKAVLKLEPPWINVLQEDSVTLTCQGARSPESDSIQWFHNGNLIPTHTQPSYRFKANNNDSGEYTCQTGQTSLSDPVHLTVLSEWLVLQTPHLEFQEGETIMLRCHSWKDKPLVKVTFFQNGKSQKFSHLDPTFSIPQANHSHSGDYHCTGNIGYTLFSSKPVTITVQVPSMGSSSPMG


Experiments:
Test in all cases: SPR
[1] = molecular target: T1, human FcγRIIb receptor protein (R&D …)
[2] = molecular target: T4, human FcγRI receptor protein (R&D Systems) (human, UniProt P12314 16-288)
T4 construct: also called soluble FcγRI; solFcγRI
T4 sequence (P12314 16-288 limits assumed): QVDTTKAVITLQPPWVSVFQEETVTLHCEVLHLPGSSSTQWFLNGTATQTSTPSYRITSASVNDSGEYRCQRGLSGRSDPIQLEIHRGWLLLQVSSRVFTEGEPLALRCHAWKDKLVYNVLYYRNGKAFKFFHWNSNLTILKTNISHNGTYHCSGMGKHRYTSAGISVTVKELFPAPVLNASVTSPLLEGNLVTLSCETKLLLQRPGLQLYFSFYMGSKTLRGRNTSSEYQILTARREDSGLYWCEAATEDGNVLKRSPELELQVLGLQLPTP

[3] = molecular target: T2, human FcγRIIa (131R), His- and …
[4] = molecular target: T3, human FcγRIIa (131H), His- and …
[5] = molecular target: T5, human FcγRIIIa (158V), His- and GST-tagged (human, UniProt P08637 17-208)
T5 construct: also called V158 FcγRIIIa; VIIIa; not shown: 6xHis and GST tags of the pTT5 vector
T5 sequence (P08637 17-208 F176V): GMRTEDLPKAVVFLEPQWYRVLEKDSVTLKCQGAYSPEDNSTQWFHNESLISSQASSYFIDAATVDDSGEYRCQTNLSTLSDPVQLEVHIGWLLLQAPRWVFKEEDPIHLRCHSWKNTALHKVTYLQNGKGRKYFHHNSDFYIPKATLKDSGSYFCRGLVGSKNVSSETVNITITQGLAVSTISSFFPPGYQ

Binder | Fold vs WT IgG1 [1] | Kd [1] | Fold vs WT IgG1 [2] | Kd [2] | Fold vs WT IgG1 [3] | Kd [3] | Fold vs WT IgG1 [4] | Kd [4] | binding result [5] | binding result [4] | Fold vs WT IgG1 [5] | Kd [5]
G236D/S239D/S267E (antibody, human IgG1, kappa, HuAM4G7 anti-CD19 IgG1 (m1) with these Fc substitutions, EU index; copies: 2 + 2) heavy: EVQLVESGGGLVKPGGSLKLSCAASGYTFTSYVMHWVRQAPGKGLEWIGYINPYNDGTKYNEKFQGRVTISSDKSISTAYMELSSLRSEDTAMYYCARGTYYYGTRVFDYWGQGTLVTVSSASTKGPSVFPLAPSSKSTSGGTAALGCLVKDYFPEPVTVSWNSGALTSGVHTFPAVLQSSGLYSLSSVVTVPSSSLGTQTYICNVNHKPSNTKVDKKVEPKSCDKTHTCPPCPAPELLDGPDVFLFPPKPKDTLMISRTPEVTCVVVDVEHEDPEVKFNWYVDGVEVHNAKTKPREEQYNSTYRVVSVLTVLHQDWLNGKEYKCKVSNKALPAPIEKTISKAKGQPREPQVYTLPPSREEMTKNQVSLTCLVKGFYPSDIAVEWESNGQPENNYKTTPPVLDSDGSFFLYSKLTVDKSRWQQGNVFSCSVMHEALHNHYTQKSLSLSPGK light: DIVMTQSPATLSLSPGERATLSCRSSKSLQNVNGNTYLYWFQQKPGQSPQLLIYRMSNLNSGVPDRFSGSGSGTEFTLTISSLEPEDFAVYYCMQHLEYPITFGAGTKLEIKRTVAAPSVFIFPPSDEQLKSGTASVVCLLNNFYPREAKVQWKVDNALQSGNSQESVTEQDSKDSTYSLSSTLTLSKADYEKHKVYACEVTHQGLSSPVTKSFNRGEC | 84.8 fold | 17.3 nM | 0.0685 fold | 4.81 nM | 26.7 fold | 32.2 nM | 0.217 fold | 2980 nM | no binding |  |  | 
G236D/S267E/H268E (antibody, human IgG1, kappa, HuAM4G7 anti-CD19 IgG1 (m1) with these Fc substitutions, EU index; copies: 2 + 2) heavy: EVQLVESGGGLVKPGGSLKLSCAASGYTFTSYVMHWVRQAPGKGLEWIGYINPYNDGTKYNEKFQGRVTISSDKSISTAYMELSSLRSEDTAMYYCARGTYYYGTRVFDYWGQGTLVTVSSASTKGPSVFPLAPSSKSTSGGTAALGCLVKDYFPEPVTVSWNSGALTSGVHTFPAVLQSSGLYSLSSVVTVPSSSLGTQTYICNVNHKPSNTKVDKKVEPKSCDKTHTCPPCPAPELLDGPSVFLFPPKPKDTLMISRTPEVTCVVVDVEEEDPEVKFNWYVDGVEVHNAKTKPREEQYNSTYRVVSVLTVLHQDWLNGKEYKCKVSNKALPAPIEKTISKAKGQPREPQVYTLPPSREEMTKNQVSLTCLVKGFYPSDIAVEWESNGQPENNYKTTPPVLDSDGSFFLYSKLTVDKSRWQQGNVFSCSVMHEALHNHYTQKSLSLSPGK light: DIVMTQSPATLSLSPGERATLSCRSSKSLQNVNGNTYLYWFQQKPGQSPQLLIYRMSNLNSGVPDRFSGSGSGTEFTLTISSLEPEDFAVYYCMQHLEYPITFGAGTKLEIKRTVAAPSVFIFPPSDEQLKSGTASVVCLLNNFYPREAKVQWKVDNALQSGNSQESVTEQDSKDSTYSLSSTLTLSKADYEKHKVYACEVTHQGLSSPVTKSFNRGEC | 110 fold | 13.4 nM | 0.0902 fold | 3.65 nM | 29.9 fold | 28.7 nM | 0.103 fold | 6300 nM | no binding |  |  | 
G236D/S267E/L328F (antibody, human IgG1, kappa, HuAM4G7 anti-CD19 IgG1 (m1) with these Fc substitutions, EU index; copies: 2 + 2) heavy: EVQLVESGGGLVKPGGSLKLSCAASGYTFTSYVMHWVRQAPGKGLEWIGYINPYNDGTKYNEKFQGRVTISSDKSISTAYMELSSLRSEDTAMYYCARGTYYYGTRVFDYWGQGTLVTVSSASTKGPSVFPLAPSSKSTSGGTAALGCLVKDYFPEPVTVSWNSGALTSGVHTFPAVLQSSGLYSLSSVVTVPSSSLGTQTYICNVNHKPSNTKVDKKVEPKSCDKTHTCPPCPAPELLDGPSVFLFPPKPKDTLMISRTPEVTCVVVDVEHEDPEVKFNWYVDGVEVHNAKTKPREEQYNSTYRVVSVLTVLHQDWLNGKEYKCKVSNKAFPAPIEKTISKAKGQPREPQVYTLPPSREEMTKNQVSLTCLVKGFYPSDIAVEWESNGQPENNYKTTPPVLDSDGSFFLYSKLTVDKSRWQQGNVFSCSVMHEALHNHYTQKSLSLSPGK light: DIVMTQSPATLSLSPGERATLSCRSSKSLQNVNGNTYLYWFQQKPGQSPQLLIYRMSNLNSGVPDRFSGSGSGTEFTLTISSLEPEDFAVYYCMQHLEYPITFGAGTKLEIKRTVAAPSVFIFPPSDEQLKSGTASVVCLLNNFYPREAKVQWKVDNALQSGNSQESVTEQDSKDSTYSLSSTLTLSKADYEKHKVYACEVTHQGLSSPVTKSFNRGEC | 149 fold | 9.87 nM | 0.0736 fold | 4.48 nM | 59.9 fold | 14.3 nM | 0.0301 fold | 21500 nM | no binding |  |  | 
G236T (antibody, human IgG1, kappa, HuAM4G7 anti-CD19 IgG1 (m1) with this Fc substitution, EU index; copies: 2 + 2) heavy: not shown light: DIVMTQSPATLSLSPGERATLSCRSSKSLQNVNGNTYLYWFQQKPGQSPQLLIYRMSNLNSGVPDRFSGSGSGTEFTLTISSLEPEDFAVYYCMQHLEYPITFGAGTKLEIKRTVAAPSVFIFPPSDEQLKSGTASVVCLLNNFYPREAKVQWKVDNALQSGNSQESVTEQDSKDSTYSLSSTLTLSKADYEKHKVYACEVTHQGLSSPVTKSFNRGEC | 0.00225 fold | 652000 nM | 0.0157 fold | 21 nM | 0.35 fold | 2460 nM | 0.486 fold | 1330 nM | no binding |  |  | 
G237D/S267E (antibody, human IgG1, kappa, HuAM4G7 anti-CD19 IgG1 (m1) with these Fc substitutions, EU index; copies: 2 + 2) heavy: not shown light: DIVMTQSPATLSLSPGERATLSCRSSKSLQNVNGNTYLYWFQQKPGQSPQLLIYRMSNLNSGVPDRFSGSGSGTEFTLTISSLEPEDFAVYYCMQHLEYPITFGAGTKLEIKRTVAAPSVFIFPPSDEQLKSGTASVVCLLNNFYPREAKVQWKVDNALQSGNSQESVTEQDSKDSTYSLSSTLTLSKADYEKHKVYACEVTHQGLSSPVTKSFNRGEC | 17 fold | 86.1 nM | 0.0874 fold | 3.77 nM | 13.6 fold | 63.1 nM |  |  | no binding | no binding |  | 
L234E/S267E (antibody, human IgG1, kappa, HuAM4G7 anti-CD19 IgG1 (m1) with these Fc substitutions, EU index; copies: 2 + 2) heavy: not shown light: DIVMTQSPATLSLSPGERATLSCRSSKSLQNVNGNTYLYWFQQKPGQSPQLLIYRMSNLNSGVPDRFSGSGSGTEFTLTISSLEPEDFAVYYCMQHLEYPITFGAGTKLEIKRTVAAPSVFIFPPSDEQLKSGTASVVCLLNNFYPREAKVQWKVDNALQSGNSQESVTEQDSKDSTYSLSSTLTLSKADYEKHKVYACEVTHQGLSSPVTKSFNRGEC | 15.1 fold | 97 nM | 0.131 fold | 2.51 nM | 10.7 fold | 80.4 nM |  |  | no binding | no binding |  | 
L234E/S267E/L328F (antibody, human IgG1, kappa, HuAM4G7 anti-CD19 IgG1 (m1) with these Fc substitutions, EU index; copies: 2 + 2) heavy: EVQLVESGGGLVKPGGSLKLSCAASGYTFTSYVMHWVRQAPGKGLEWIGYINPYNDGTKYNEKFQGRVTISSDKSISTAYMELSSLRSEDTAMYYCARGTYYYGTRVFDYWGQGTLVTVSSASTKGPSVFPLAPSSKSTSGGTAALGCLVKDYFPEPVTVSWNSGALTSGVHTFPAVLQSSGLYSLSSVVTVPSSSLGTQTYICNVNHKPSNTKVDKKVEPKSCDKTHTCPPCPAPEELGGPSVFLFPPKPKDTLMISRTPEVTCVVVDVEHEDPEVKFNWYVDGVEVHNAKTKPREEQYNSTYRVVSVLTVLHQDWLNGKEYKCKVSNKAFPAPIEKTISKAKGQPREPQVYTLPPSREEMTKNQVSLTCLVKGFYPSDIAVEWESNGQPENNYKTTPPVLDSDGSFFLYSKLTVDKSRWQQGNVFSCSVMHEALHNHYTQKSLSLSPGK light: DIVMTQSPATLSLSPGERATLSCRSSKSLQNVNGNTYLYWFQQKPGQSPQLLIYRMSNLNSGVPDRFSGSGSGTEFTLTISSLEPEDFAVYYCMQHLEYPITFGAGTKLEIKRTVAAPSVFIFPPSDEQLKSGTASVVCLLNNFYPREAKVQWKVDNALQSGNSQESVTEQDSKDSTYSLSSTLTLSKADYEKHKVYACEVTHQGLSSPVTKSFNRGEC | 195 fold | 7.53 nM | 0.0425 fold | 7.75 nM | 174 fold | 4.93 nM | 0.0725 fold | 8920 nM | no binding |  |  | 
L234F/S267E (antibody, human IgG1, kappa, HuAM4G7 anti-CD19 IgG1 (m1) with these Fc substitutions, EU index; copies: 2 + 2) heavy: not shown light: DIVMTQSPATLSLSPGERATLSCRSSKSLQNVNGNTYLYWFQQKPGQSPQLLIYRMSNLNSGVPDRFSGSGSGTEFTLTISSLEPEDFAVYYCMQHLEYPITFGAGTKLEIKRTVAAPSVFIFPPSDEQLKSGTASVVCLLNNFYPREAKVQWKVDNALQSGNSQESVTEQDSKDSTYSLSSTLTLSKADYEKHKVYACEVTHQGLSSPVTKSFNRGEC | 26.4 fold | 55.7 nM | 0.661 fold | 0.498 nM | 20.7 fold | 41.6 nM | 0.509 fold | 1270 nM |  |  | 0.0938 fold | 2040 nM
